Laboratory results: patent publication US20110040077, “Protein-Responsive Translational Regulatory System Using RNA-Protein Interacting Motif” (JAPAN SCIENCE AND TECHNOLOGY AGENCY, published 2011)

How the values were obtained:
[1] = biological target: T1, L7Ae (Archaeoglobus fulgidus, UniProt O29494 SEQ:21-139); experiment: EMSA; 150 mM KCl, 1.5 mM MgCl2, tRNA competitor, 0-500 nM protein, on ice; conditions: tags: His tag (pET-28b+, NdeI/XhoI); label: 32P
Experimental: (§1) The reaction of L7Ae with Box C/D, Box C/D mini, or Box C/D minimut was performed at a final concentration of 10 nM, 25 nM, or 25 nM RNA, respectively. The reaction was performed as follows under conditions involving 10 nM or 25 nM RNA, 20 mM Hepes-KOH, 150 mM KCl, 1.5 mM MgCl₂, 2 mM DTT, 0.001 U/mL tRNA, 3% glycerol, and 0 to 500 nM protein. First, 1 μL of ³²P-labeled RNA was denatured at 80° C. for 5 minutes and then supplemented with 4 μL of 5×binding buffer (100 mM Hepes-KOH (pH 7.5), 750 mM KCl, 7.5 mM MgCl₂, 10 mM DTT, 0.005 U/ρL tRNA, 15% glycerol) and ultrapure water. Then, the solution was mixed with the protein to adjust the whole amount to 20 μL. The reaction solution was left on ice for 60 minutes. 2 μL of dye (0.25% BPB, 0.25% XC, 30% glycerol) was added thereto, and the mixture was electrophoresed on a 8% nondenaturing polyacrylamide gel at 4° C. for 3 to 4 hours. Then, the gel was dried for 1 hour using a gel drier and analyzed for its radiation dose intensity using Bio-Imaging Analyzer (BAS2500; FUJIFILM) (FIGS. 4 and 5).

[2] = biological target: T1, L7Ae; experiment: as above; conditions: tags: His tag (pET-28b+, NdeI/XhoI); label: 32P; remark: listed apart in the source
Experimental: as §1
(§2) As a result, both Box C/D and Box C/D mini were confirmed to increase the band in an L7Ae protein concentration-dependent manner.

[3] = biological target: T1, L7Ae; experiment: EMSA; no band increase at 0-500 nM protein; conditions: tags: His tag (pET-28b+, NdeI/XhoI); label: 32P
Experimental: as §1, §2

[4] = biological target: T2, ThrRS (threonyl-tRNA synthetase) (Escherichia coli, UniProt P0A8M3 SEQ:13-654); experiment: EMSA; 50 mM KCl, 5 mM MgCl2, 0-40 uM protein; stronger than Domain 2; conditions: tags: His tag (pQE-30); label: 32P
T2 sequence (P0A8M3 whole entry, the tested form may be a part): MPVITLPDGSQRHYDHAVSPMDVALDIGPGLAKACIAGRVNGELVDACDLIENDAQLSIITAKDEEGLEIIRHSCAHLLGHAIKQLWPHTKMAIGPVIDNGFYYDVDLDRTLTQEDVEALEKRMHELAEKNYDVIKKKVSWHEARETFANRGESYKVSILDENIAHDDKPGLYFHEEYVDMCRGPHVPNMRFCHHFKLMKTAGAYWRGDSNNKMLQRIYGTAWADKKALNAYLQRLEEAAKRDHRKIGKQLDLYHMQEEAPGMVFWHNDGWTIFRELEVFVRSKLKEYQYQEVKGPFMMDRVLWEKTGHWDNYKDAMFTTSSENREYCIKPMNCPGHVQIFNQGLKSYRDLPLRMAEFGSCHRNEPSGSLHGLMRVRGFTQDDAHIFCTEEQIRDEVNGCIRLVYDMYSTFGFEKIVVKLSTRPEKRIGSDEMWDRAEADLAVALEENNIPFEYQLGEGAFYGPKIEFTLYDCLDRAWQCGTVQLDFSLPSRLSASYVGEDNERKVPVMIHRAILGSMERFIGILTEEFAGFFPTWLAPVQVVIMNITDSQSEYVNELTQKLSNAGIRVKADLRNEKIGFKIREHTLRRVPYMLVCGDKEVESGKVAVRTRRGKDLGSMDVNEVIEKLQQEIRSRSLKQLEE
Experimental: (§3) The reaction of ThrRS with Domain 234 or Domain 2 was performed as follows under conditions involving final concentrations of 20 nM RNA, 25 mM Hepes-KOH, 50 mM KCl, 5 mM MgCl₂, 1 mM DTT, 5% glycerol, and 0 to 40 μM protein. First, […] ³²P-labeled RNA was denatured at 80° C. for 5 minutes and then supplemented with 4 μL of 5×binding buffer ([…], 250 mM KCl, 25 mM MgCl₂, 5 mM DTT, 25% glycerol) and ultrapure water. Then, the solution was mixed with the protein to adjust the whole amount to 20 μL. The reaction solution was left on ice for 60 minutes. 2 μL of dye (0.25% BPB, 0.25% XC, 30% glycerol) was added thereto, and the mixture was electrophoresed on a 12% nondenaturing polyacrylamide gel at 4° C. for 3 to 4 hours. Then, the gel was dried for 1 hour using a gel drier and analyzed for its radiation dose intensity using Bio-Imaging Analyzer (BAS2500; FUJIFILM) (FIGS. 6 and 7).
(§4) As a result, both ThrRS Domain 234 and ThrRS Domain 2 were confirmed to increase the band in a ThrRS protein concentration-dependent manner. […] As is also evident from the degree of band smear, Domain 234 has stronger binding than only Domain 2.

[5] = biological target: T2, ThrRS (threonyl-tRNA synthetase); experiment: EMSA; 50 mM KCl, 5 mM MgCl2, 0-40 uM protein; supershift suggests dimer; weaker than Domain 234; conditions: tags: His tag (pQE-30); label: 32P
Experimental: as §3, §4

T1 sequence (O29494 whole entry): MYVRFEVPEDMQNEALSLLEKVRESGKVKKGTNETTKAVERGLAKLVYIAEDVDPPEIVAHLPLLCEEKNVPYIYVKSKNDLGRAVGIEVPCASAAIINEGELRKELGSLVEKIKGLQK

B1: Box C/D (ssRNA)
RNA: GGCCAGAGUGGGCGUGAUGCAUGUCUAGGAAACUAGACAUGCUGACCCACUCUGGCC
Question: Does B1 bind [1]?
Answer: binds

Question: Does GGGCGUGAUGCGAAAGCUGACCC (ssRNA) [Box C/D mini] bind [2]?
Answer: binds

Question: Does GGGCGUCAUGCGAAAGCUGCCCC (ssRNA) [Box C/D minimut] bind [3]?
Answer: no binding

B2: ThrRS Domain 234 (ssRNA)
RNA: GGAUUGCGAACCAAUUUAGCAUUUGUUGGCUGCAAAUGGUUUCGCAAUGAACUGUUAAUAAACAAAUUUUUCUUUGUAUGUGAUCUUUCGUGUGGGUCACCACUGCAAA
Question: Does B2 bind [4]?
Answer: binds

Question: Does GGCGUAUGUGAUCUUUCGUGUGGGUCACCACUGCGCC (ssRNA) [ThrRS Domain 2] bind [5]?
Answer: binds
